This data set has as its system K562 CRISPRi cells. Nature of the data set: Constant region variant library pooled growth screen, K562. It is filed as cell-based, human. The note with it: sgRNA constant region variants, un-modified constant region cr995. An outline of the steps:
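Library of sgRNA constant-region variants, each paired with 36 targeting sequences (essential-gene and non-targeting), transduced in duplicate into K562 CRISPRi cells, puromycin-selected and grown 4–8 days at >2000× coverage. Activity per variant is its growth phenotype normalised to the same targeting sequence with unmodified constant region.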

Setting [1] is: relative to the original, CRISPRi.
[2] abbreviates: activity relative to the original.

Substitutions are numbered along the chain they refer to.

B1: cr460 (nucleic acid)
guide: GTTTAAGAGCTAAGCTGGAAACAGCATAGCAAGTTTAAATAAGGGTACTCCGTTATCAACTTGAAAAAGTGGCTCAGAGTCTGAGCT
modifications: listed as DNA, chemistry not fully specified
As for B1, under setting [1], the Mean relative activity is reported as 0.4381.

B2: cr527 (nucleic acid)
guide: B1 guide with T35G, G45C, C48G, T74A, A76C, T82G, A84T
modifications: listed as DNA, chemistry not fully specified
Take B2: under setting [1], the Mean relative activity was 0.3802.

B3: cr856 (nucleic acid)
guide: B1 guide with G45A, C48T, C60A, G69T, A76C, T82G
modifications: listed as DNA, chemistry not fully specified
B3 registered a Mean relative activity under setting [1] of 0.3826.

B4: cr148 (nucleic acid)
guide: B1 guide with T34C, G45C, C48G, T74G, A76C, T82G, A84C
modifications: listed as DNA, chemistry not fully specified
On to B4, for which the Mean relative activity under setting [1] stood at 0.4276.

B5: cr356 (nucleic acid)
guide: B1 guide with G45C, C48G, A59C, T70G, G72A, T74A, A76C, T82G, A84T, C86T
modifications: listed as DNA, chemistry not fully specified
B5 returned a Mean relative activity under setting [2] of 1.042.

B6: cr459 (nucleic acid)
guide: B1 guide with A31G, G45C, C48G, A58T, T74A, A76C, T82G, A84T
modifications: listed as DNA, chemistry not fully specified
Under setting [1], B6 registered a Mean relative activity of 0.3837.

B7: cr318 (nucleic acid)
guide: B1 guide with A42T, G45C, C48G, A65T, T74A, A76C, T82G, A84T
modifications: listed as DNA, chemistry not fully specified
The molecule B7 had a Mean relative activity under setting [1] of 0.4269.

B8: cr804 (nucleic acid)
guide: B1 guide with T34C, G45C, C48G, G72A, T74A, A76C, T82G, A84T, C86T
modifications: listed as DNA, chemistry not fully specified
Under setting [1], B8 came in with a Mean relative activity of 0.4025.

B9: cr755 (nucleic acid)
guide: B1 guide with T34C, G45C, C48G, A76C, T82G
modifications: listed as DNA, chemistry not fully specified
In the case of B9, the Mean relative activity under setting [1] was 0.3814.

B10: cr200 (nucleic acid)
guide: B1 guide with G33A, G45C, C48G, T74A, A76C, T82G, A84T, T87C
modifications: listed as DNA, chemistry not fully specified
Turning to B10, the Mean relative activity under setting [1] turned out to be 0.3799.

B11: cr432 (nucleic acid)
guide: B1 guide with T34C, G45C, C48G, C60G, G69C, T74A, A76C, T82G, A84T
modifications: listed as DNA, chemistry not fully specified
Under setting [1], B11 yielded a Mean relative activity of 0.3923.

B12: cr385 (nucleic acid)
guide: B1 guide with G45C, C48G, T74C, C75A, A76C, G77C, C81G, T82G, G83T, A84G
modifications: listed as DNA, chemistry not fully specified
As for B12, the Mean relative activity under setting [1] turned out to be 0.4186.

B13: cr809 (nucleic acid)
guide: B1 guide with G45C, C48G, T61G, A68C, C73A, T74A, A76C, T82G, A84T, G85T
modifications: listed as DNA, chemistry not fully specified
In turn, B13 showed a Mean relative activity under setting [2] of 1.042.

B14: cr794 (nucleic acid)
guide: B1 guide with G45C, C48G, G72C, T74A, A76G, T82C, A84T, C86G
modifications: listed as DNA, chemistry not fully specified
B14: under setting [1], the Mean relative activity was determined as 0.411.

B15: cr296 (nucleic acid)
guide: B1 guide with G45C, C48G, C73T, T74A, A76G, G77C, C81G, T82C, A84T, G85A
modifications: listed as DNA, chemistry not fully specified
Turning to B15, under setting [1], the Mean relative activity was 0.3911.

B16: cr813 (nucleic acid)
guide: B1 guide with G45C, C48G, A58T, T74A, A76C, T82G, A84T
modifications: listed as DNA, chemistry not fully specified
As for B16, the Mean relative activity under setting [1] was found to be 0.3803.

B17: cr249 (nucleic acid)
guide: B1 guide with G45C, C48G, T54G, C57T, T74A, A76C, T80A, T82G, A84T
modifications: listed as DNA, chemistry not fully specified
For the molecule B17, the Mean relative activity under setting [1] was found to be 0.3886.

B18: cr799 (nucleic acid)
guide: B1 guide with G45C, C48G, C51T, T74A, A76C, T82G, A84T
modifications: listed as DNA, chemistry not fully specified
As to B18, under setting [1], the Mean relative activity came to 0.4031.

B19: cr728 (nucleic acid)
guide: B1 guide with G45C, C48G, A58G, A65C, T74A, A76C, T82G, A84T
modifications: listed as DNA, chemistry not fully specified
For B19, the Mean relative activity under setting [1] is recorded as 0.4155.

B20: cr566 (nucleic acid)
guide: B1 guide with T34C, G45C, C48G, T61A, A68T, T74A, A76C, T82G, A84T
modifications: listed as DNA, chemistry not fully specified
Regarding B20, the Mean relative activity under setting [1] is recorded as 0.4299.

B21: cr126 (nucleic acid)
guide: B1 guide with G33A, G45C, A47C, C48G, G63T, T74A, A76C, T82G, A84T
modifications: listed as DNA, chemistry not fully specified
Molecule B21 gave a Mean relative activity under setting [1] of 0.4034.

B22: cr545 (nucleic acid)
guide: B1 guide with G29A, G45C, C48G, T54C, C57A, T74A, A76C, T82G, A84T
modifications: listed as DNA, chemistry not fully specified
For the molecule B22, under setting [1], the Mean relative activity is recorded as 0.3936.

B23: cr772 (nucleic acid)
guide: B1 guide with G45C, C48G, T62C, A67G, T74A, A76C, T82G, A84T
modifications: listed as DNA, chemistry not fully specified
B23 showed a Mean relative activity under setting [2] of 1.099.

B24: cr736 (nucleic acid)
guide: B1 guide with T34A, G45C, C48G, T74A, A76C, T82G, A84T, T87A
modifications: listed as DNA, chemistry not fully specified
In turn, B24 registered a Mean relative activity under setting [1] of 0.4208.

B25: cr040 (nucleic acid)
guide: B1 guide with G1A, A6C, G45C, C48G, T74A, A76C, T82G, A84T
modifications: listed as DNA, chemistry not fully specified
Under setting [1], B25 displayed a Mean relative activity of 0.4233.

B26: cr775 (nucleic acid)
guide: B1 guide with A31G, G33T, G45C, C48G, T74A, A76C, T82G, A84T
modifications: listed as DNA, chemistry not fully specified
Molecule B26 showed a Mean relative activity under setting [1] of 0.4052.

B27: cr569 (nucleic acid)
guide: B1 guide with A28G, G45C, A47C, C48G, C57G, T74A, A76C, T82G, A84T
modifications: listed as DNA, chemistry not fully specified
As for B27, under setting [1], the Mean relative activity was 0.3992.

B28: cr473 (nucleic acid)
guide: B1 guide with G45C, C48G, T53A, C57A, A64C, T74A, A76C, T82G, A84T
modifications: listed as DNA, chemistry not fully specified
In the case of B28, under setting [1], the Mean relative activity came to 0.3892.

B29: cr165 (nucleic acid)
guide: GTTTAAGAGCTAAGCTGGAAACAGCATAGCAAGTTTAAATAAAGCTAGTCTGTTATCAACTCGAAAGAGTGTCACCGAGTCGGTGAT
modifications: listed as DNA, chemistry not fully specified
Under setting [1], B29 gave a Mean relative activity of 0.4224.

(Values after patent publication US20220259593A1, “CONTROL OF MAMMALIAN GENE DOSAGE USING CRISPR” (The Regents of the University of California, priority 2019, published 2022).)
